Measured values taken from PMC9482650, “Quantitative fragmentomics allow affinity mapping of interactomes” (Nature Communications, 2022).
Where a chain is given by its changes, count along the chain named.

T1: LIN7C, Q9NUP9
T1 sequence (Q9NUP9 88-185, limits assumed, looked up): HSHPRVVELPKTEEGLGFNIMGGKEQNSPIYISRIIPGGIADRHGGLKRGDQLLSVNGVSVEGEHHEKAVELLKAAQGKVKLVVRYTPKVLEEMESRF

T2: LIN7B, Q9HAP6
T2 sequence (Q9HAP6 88-185, limits assumed, looked up): T1 sequence (Q9NUP9 88-185, limits assumed, looked up) with S2A, E13D, I35V, I40V, H65Q, K79S, K89R, S96A

T3: DFNB31_3, Q9P202
T3 sequence (Q9P202 811-907, limits assumed, looked up): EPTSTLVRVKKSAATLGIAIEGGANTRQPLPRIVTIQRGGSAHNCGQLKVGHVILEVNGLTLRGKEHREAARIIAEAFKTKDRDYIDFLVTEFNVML

T4: MPP2, Q14168
T4 sequence (Q14168 180-250, limits assumed, looked up): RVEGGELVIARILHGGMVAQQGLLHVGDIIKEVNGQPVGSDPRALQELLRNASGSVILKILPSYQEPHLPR

T5: ARHGEF11, O15085
T5 sequence (O15085 42-136, limits assumed, looked up): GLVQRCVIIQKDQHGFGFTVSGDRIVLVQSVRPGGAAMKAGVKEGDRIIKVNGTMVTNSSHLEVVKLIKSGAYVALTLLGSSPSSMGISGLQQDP

T6: ARHGAP21, Q5T5U3
T6 sequence (Q5T5U3 45-169, limits assumed, looked up): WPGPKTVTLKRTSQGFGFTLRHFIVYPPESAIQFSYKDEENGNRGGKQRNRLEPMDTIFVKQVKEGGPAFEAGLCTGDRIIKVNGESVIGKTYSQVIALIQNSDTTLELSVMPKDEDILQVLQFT

T7: FRMPD1, Q5SYB0
T7 sequence (Q5SYB0 52-145, limits assumed, looked up): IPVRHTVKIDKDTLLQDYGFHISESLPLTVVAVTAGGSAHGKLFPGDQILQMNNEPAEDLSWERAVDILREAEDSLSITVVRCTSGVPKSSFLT

T8: PARD3B_1, Q8TEW8
T8 sequence (Q8TEW8 196-299, limits assumed, looked up): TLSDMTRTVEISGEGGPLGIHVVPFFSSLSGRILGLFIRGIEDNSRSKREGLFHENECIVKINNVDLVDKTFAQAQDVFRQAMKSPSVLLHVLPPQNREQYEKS

T9: NHERF3_3, Q5T2W1
T9 sequence (Q5T2W1 238-333, limits assumed, looked up): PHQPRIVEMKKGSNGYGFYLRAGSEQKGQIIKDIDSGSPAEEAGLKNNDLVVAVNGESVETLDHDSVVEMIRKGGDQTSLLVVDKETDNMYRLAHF

T10: PTPN13_1, Q12923
T10 sequence (Q12923 1088-1188, limits assumed, looked up): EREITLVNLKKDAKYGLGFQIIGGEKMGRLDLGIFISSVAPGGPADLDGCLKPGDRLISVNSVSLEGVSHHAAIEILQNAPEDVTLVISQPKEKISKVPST

T11: PCLO, Q9Y6V0
T11 sequence (Q9Y6V0 4491-4600, limits assumed, looked up): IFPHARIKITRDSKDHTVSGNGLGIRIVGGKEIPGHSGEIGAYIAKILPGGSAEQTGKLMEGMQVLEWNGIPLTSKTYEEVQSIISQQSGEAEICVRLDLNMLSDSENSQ

T12: GRIP1_5, Q9Y3R0
T12 sequence (Q9Y3R0 568-668, limits assumed, looked up): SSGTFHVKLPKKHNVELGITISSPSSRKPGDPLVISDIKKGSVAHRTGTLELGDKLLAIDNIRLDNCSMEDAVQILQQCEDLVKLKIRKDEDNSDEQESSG


Tests used:
Assay in all cases: holdup assay
Set-up in all cases: key: below the threshold = too weak to quantify, mostly under pKd 3.1 to 4
Details in all cases: plain residues with an end cap or a label only (N-terminal biotin on a linker: ado-ado)
[1] = target: NOS1, P29475
Chain of NOS1, P29475 (P29475 9-101): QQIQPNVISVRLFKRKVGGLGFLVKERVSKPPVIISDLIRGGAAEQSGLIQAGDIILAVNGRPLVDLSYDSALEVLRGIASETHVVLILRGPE

[2] = target: GIPC2, Q8TF65
Chain of GIPC2, Q8TF65 (Q8TF65 112-203): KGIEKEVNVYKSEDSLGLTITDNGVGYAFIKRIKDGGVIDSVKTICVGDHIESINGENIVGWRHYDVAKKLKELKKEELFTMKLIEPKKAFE

[3] = target: T1, LIN7C, Q9NUP9
[4] = target: NHERF4_2, Q86UT5
Chain of NHERF4_2, Q86UT5 (Q86UT5 220-308): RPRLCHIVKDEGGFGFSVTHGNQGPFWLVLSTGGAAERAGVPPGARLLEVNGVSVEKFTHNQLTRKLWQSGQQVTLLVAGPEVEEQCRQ

[5] = target: GRID2IP_2, A4D2P6
Chain of GRID2IP_2, A4D2P6 (A4D2P6 272-370): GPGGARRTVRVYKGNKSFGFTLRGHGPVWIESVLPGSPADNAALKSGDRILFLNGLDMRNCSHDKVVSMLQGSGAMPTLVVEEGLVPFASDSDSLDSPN

[6] = target: GRIP2_4, Q9C0E4
Chain of GRIP2_4, Q9C0E4 (Q9C0E4 446-548): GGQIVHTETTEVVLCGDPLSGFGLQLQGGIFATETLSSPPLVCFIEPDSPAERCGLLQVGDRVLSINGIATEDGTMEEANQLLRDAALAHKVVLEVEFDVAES

[7] = target: T2, LIN7B, Q9HAP6
[8] = target: T3, DFNB31_3, Q9P202
[9] = target: T4, MPP2, Q14168
[10] = target: T5, ARHGEF11, O15085
[11] = target: T6, ARHGAP21, Q5T5U3
[12] = target: T7, FRMPD1, Q5SYB0
[13] = target: MAGI2_4, Q86UL8
Chain of MAGI2_4, Q86UL8 (Q86UL8 772-865): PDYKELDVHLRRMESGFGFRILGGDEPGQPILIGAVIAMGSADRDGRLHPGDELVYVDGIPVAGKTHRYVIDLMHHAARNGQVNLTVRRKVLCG

[14] = target: PARD3_3, Q8TEW0
Chain of PARD3_3, Q8TEW0 (Q8TEW0 582-685): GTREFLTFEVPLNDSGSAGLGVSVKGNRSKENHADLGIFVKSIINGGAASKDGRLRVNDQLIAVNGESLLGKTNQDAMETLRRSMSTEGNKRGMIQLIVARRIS

[15] = target: IL16_3, Q14005
Chain of IL16_3, Q14005 (Q14005 1107-1207): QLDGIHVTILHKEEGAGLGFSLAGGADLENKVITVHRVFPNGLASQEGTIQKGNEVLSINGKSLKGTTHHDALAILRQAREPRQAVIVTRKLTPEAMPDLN

[16] = target: Inadl_8, Q8NI35
Chain of Inadl_8, Q8NI35 (Q8NI35 1425-1530): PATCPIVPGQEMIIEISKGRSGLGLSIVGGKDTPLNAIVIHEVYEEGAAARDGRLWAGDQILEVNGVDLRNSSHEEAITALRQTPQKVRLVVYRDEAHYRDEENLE

[17] = target: T8, PARD3B_1, Q8TEW8
[18] = target: LNX1_1, Q8TBB1
Chain of LNX1_1, Q8TBB1 (Q8TBB1 261-371): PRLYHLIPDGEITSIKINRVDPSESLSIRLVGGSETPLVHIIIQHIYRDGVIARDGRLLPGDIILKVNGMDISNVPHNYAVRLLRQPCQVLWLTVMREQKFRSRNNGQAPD

[19] = target: T9, NHERF3_3, Q5T2W1
[20] = target: T10, PTPN13_1, Q12923
[21] = target: T11, PCLO, Q9Y6V0
[22] = target: DLG4_2, P78352
Chain of DLG4_2, P78352 (P78352 155-259): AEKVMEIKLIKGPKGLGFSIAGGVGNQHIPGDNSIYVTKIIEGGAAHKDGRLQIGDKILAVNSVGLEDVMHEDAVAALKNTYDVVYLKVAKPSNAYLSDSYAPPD

[23] = target: Inadl_10, Q8NI35
Chain of Inadl_10, Q8NI35 (Q8NI35 1673-1763): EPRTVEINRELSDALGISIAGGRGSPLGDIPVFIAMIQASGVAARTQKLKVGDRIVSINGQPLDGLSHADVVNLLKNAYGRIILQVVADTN

[24] = target: T12, GRIP1_5, Q9Y3R0

Binder	pKd [1]	pKd [2]	pKd [3]	pKd [4]	pKd [5]	pKd [6]	pKd [7]	pKd [8]	pKd [9]	pKd [10]	pKd [11]	pKd [12]	pKd [13]	pKd [14]	pKd [15]	pKd [16]	pKd [17]	pKd [18]	pKd [19]	pKd [20]	other results
IPGKEFDTPL [PLCB1, Q9NQ66]	below the threshold	below the threshold	below the threshold	below the threshold	below the threshold	below the threshold	below the threshold	below the threshold	below the threshold	below the threshold	3.58	below the threshold	below the threshold	below the threshold	below the threshold	below the threshold	below the threshold	below the threshold	below the threshold	below the threshold	pKd [21]: below the threshold; pKd [22]: below the threshold; pKd [23]: below the threshold; pKd [24]: below the threshold
RRLQGTSSMV [GOLT1A, Q6ZVE7]	3.77	below the threshold	below the threshold	below the threshold	3.93	below the threshold	3.72	3.66	below the threshold	below the threshold	below the threshold	below the threshold	below the threshold	below the threshold	below the threshold	4.08	below the threshold	3.83	below the threshold	below the threshold	pKd [21]: below the threshold; pKd [22]: 4.71; pKd [23]: below the threshold; pKd [24]: below the threshold
TGPWKNETTV [ADGRA1, Q86SQ6]	below the threshold	4.24	4.27	below the threshold	below the threshold	below the threshold	3.54	below the threshold	below the threshold	4.09	below the threshold	below the threshold	4.74	below the threshold	below the threshold	below the threshold	below the threshold	below the threshold	below the threshold	below the threshold	pKd [21]: below the threshold; pKd [22]: 5.08; pKd [23]: below the threshold; pKd [24]: below the threshold
DHLGGGGESM [TNRC6A, Q8NDV7]	below the threshold	below the threshold	3.95	below the threshold	below the threshold	below the threshold	below the threshold	below the threshold	below the threshold	below the threshold	below the threshold	below the threshold	below the threshold	below the threshold	below the threshold	below the threshold	3.59	below the threshold	below the threshold	below the threshold	pKd [21]: below the threshold; pKd [22]: below the threshold; pKd [23]: below the threshold; pKd [24]: below the threshold
ALPLPQSSTC [IGF1R, P08069]	below the threshold	below the threshold	below the threshold	below the threshold	3.99	below the threshold	3.86	3.59	below the threshold	4.13	3.76	below the threshold	below the threshold	below the threshold	below the threshold	3.66	below the threshold	3.58	below the threshold	below the threshold	pKd [21]: below the threshold; pKd [22]: 3.76; pKd [23]: below the threshold; pKd [24]: below the threshold
REKKFFCTIL [GNG4, P50150]	3.81	below the threshold	below the threshold	below the threshold	5.07	below the threshold	3.97	4.62	4.01	5.34	3.93	below the threshold	4.26	4.27	below the threshold	4.52	5	5.09	3.5	below the threshold	pKd [21]: below the threshold; pKd [22]: 3.95; pKd [23]: 4.26; pKd [24]: below the threshold
